Test [1] addresses T1, SpRpn12 fragment (residues 1-250) (Schizosaccharomyces pombe, UniProt P50524 1-250).
T1 sequence (looked up): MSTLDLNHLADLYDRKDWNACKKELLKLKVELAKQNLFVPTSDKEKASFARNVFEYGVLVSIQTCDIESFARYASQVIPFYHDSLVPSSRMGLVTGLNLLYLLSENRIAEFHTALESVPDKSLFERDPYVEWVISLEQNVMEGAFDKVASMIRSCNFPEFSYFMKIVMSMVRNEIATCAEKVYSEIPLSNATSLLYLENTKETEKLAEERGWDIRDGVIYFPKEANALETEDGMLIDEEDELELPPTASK
As to the kind of experiment: NMR titration.

For test [2], the target named is monoubiquitin (bovine) (bovine, UniProt P0CG53 1-76). As to the kind of experiment: ITC.

B1: SpRpn10 VWA domain (residues 1-195) (domain or fragment, Schizosaccharomyces pombe, UniProt O94444 1-195, looked up)
chain: MVLEATMILIDNSEWMINGDYIPTRFEAQKDTVHMIFNQKINDNPENMCGLMTIGDNSPQVLSTLTRDYGKFLSAMHDLPVRGNAKFGDGIQIAQLALKHRENKIQRQRIVAFVGSPIVEDEKNLIRLAKRMKKNNVAIDIIHIGELQNESALQHFIDAANSSDSCHLVSIPPSPQLLSDLVNQSPIGQGVVASQ
Turning to B1, the binding result in test [1] is reported as “binds”.

B2: Schizosaccharomyces pombe Rpn10, full-length (residues 1-243) (natural protein)
chain: MVLEATMILIDNSEWMINGDYIPTRFEAQKDTVHMIFNQKINDNPENMCGLMTIGDNSPQVLSTLTRDYGKFLSAMHDLPVRGNAKFGDGIQIAQLALKHRENKIQRQRIVAFVGSPIVEDEKNLIRLAKRMKKNNVAIDIIHIGELQNESALQHFIDAANSSDSCHLVSIPPSPQLLSDLVNQSPIGQGVVASQNQFEYGVDPNLDVELALALELSMAEERARQEVAAQKSSEETEDKKMQE
For orientation: Kd means a measure of binding affinity in units of concentration. Higher therefore signals lower affinity. B2 yielded a Kd in test [2] of 139 µM.

Values taken from article PMC2962499 (The Journal of Biological Chemistry, 2010).
